# The star is where a group is joined. FITC = O=C1OC2(c3ccc(O)cc3Oc3cc(O)ccc32)c2ccc(NC(=S)*)cc21; Cbz = O=C(OCc1ccccc1)*
# T1: APC (303–739) (UniProt P25054 303-739)
# T1 chain: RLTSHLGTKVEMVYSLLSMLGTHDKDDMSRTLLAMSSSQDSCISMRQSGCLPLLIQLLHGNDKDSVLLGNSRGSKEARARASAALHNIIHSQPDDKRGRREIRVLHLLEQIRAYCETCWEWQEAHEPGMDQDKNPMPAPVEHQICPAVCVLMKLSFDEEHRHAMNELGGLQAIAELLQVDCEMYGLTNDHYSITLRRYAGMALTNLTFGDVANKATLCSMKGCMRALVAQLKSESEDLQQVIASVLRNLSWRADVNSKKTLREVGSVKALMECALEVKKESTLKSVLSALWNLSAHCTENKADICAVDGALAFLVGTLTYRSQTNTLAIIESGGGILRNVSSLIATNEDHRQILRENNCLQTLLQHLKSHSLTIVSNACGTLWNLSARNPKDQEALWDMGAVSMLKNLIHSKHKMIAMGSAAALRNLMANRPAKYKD
# Target: T1, APC (303–739)
# Assay: ITC
row,Binder,Ka [M⁻¹]
1,Ac-GGGGEQLAINELISDGK(FITC)-NH2 [tracer 1 (Ac–GGGGEQLAINELISDGK[FITC]–NH2)],1.73e+06
2,Cbz-AGESLYEK(FITC)-NH2 [tracer 7 (Z–AGESLYEK[FITC]–NH2)],1.29e+07

# — PMC9402538 (2022)
